From the supplement of paper PMC9112550, “Optimization of the antimicrobial peptide Bac7 by deep mutational scanning” (BMC Biology, 2022)

test system: Escherichia coli TOP10; assay: shrunken log2 fold change of peptide-encoding DNA abundance (4.5 h post-induction vs induction); higher = less antimicrobial activity (less host growth inhibition); conditions: time post-induction: 4.5 h; library: site-saturation at positions 5, 18, 19, 20
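Note: peptides expressed intracellularly from a pBAD plasmid library in pooled LB shake-flask culture, induced with 0.3% L-arabinose, DNA abundance read by NGS, three biological replicates, DESeq2 with apeglm shrinkage.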

Sequence | shrunken log2 fold change
RRIRLRPPRLPRPRPRPMHNPRP | -0.429
RRIRARPPRLPRPRPRPYFKPRP | -0.551
RRIRDRPPRLPRPRPRPCAPPRP | -0.0226
RRIRFRPPRLPRPRPRPDLSPRP | -0.0807
RRIRNRPPRLPRPRPRPNGGPRP | 0.153
RRIRVRPPRLPRPRPRPFVRPRP | -0.0708
RRIRNRPPRLPRPRPRPEMVPRP | -0.0225
RRIRGRPPRLPRPRPRPMASPRP | 0.176
RRIRFRPPRLPRPRPRPAYAPRP | 0.113
RRIRVRPPRLPRPRPRPKVIPRP | -0.21
RRIRERPPRLPRPRPRPMILPRP | -0.388
RRIRQRPPRLPRPRPRPYGCPRP | -0.00141
RRIRNRPPRLPRPRPRPKANPRP | 0.177
RRIRKRPPRLPRPRPRPNPVPRP | 0.0163
RRIRARPPRLPRPRPRPCGMPRP | 0.0551
RRIRRRPPRLPRPRPRPQTNPRP | 0.257
RRIRIRPPRLPRPRPRPDDVPRP | -0.00433
RRIRYRPPRLPRPRPRPRPHPRP | -0.0677
RRIRSRPPRLPRPRPRPQKMPRP | -0.122
RRIRMRPPRLPRPRPRPYFNPRP | -0.822
RRIRFRPPRLPRPRPRPLWTPRP | -0.0265
RRIRNRPPRLPRPRPRPWSCPRP | -0.42
RRIRGRPPRLPRPRPRPHCEPRP | 0.22
RRIRYRPPRLPRPRPRPARLPRP | -0.0429
RRIRSRPPRLPRPRPRPMQWPRP | -0.145

Sequence | shrunken log2 fold change
RRIRYRPPRLPRPRPRPQDHPRP | 0.0457
RRIRFRPPRLPRPRPRPKENPRP | -0.222
RRIRARPPRLPRPRPRPMNFPRP | -0.0564
RRIRCRPPRLPRPRPRPRHFPRP | -0.374
RRIRSRPPRLPRPRPRPMFAPRP | 0.154
RRIRQRPPRLPRPRPRPEKGPRP | -0.017
RRIRYRPPRLPRPRPRPAGHPRP | -0.0387
RRIRTRPPRLPRPRPRPPWCPRP | 0.28
RRIRIRPPRLPRPRPRPYQFPRP | -0.141
RRIRPRPPRLPRPRPRPKKPPRP | 0.0432
RRIRKRPPRLPRPRPRPDRDPRP | 0.00592
RRIRHRPPRLPRPRPRPPGFPRP | 0.011
RRIRIRPPRLPRPRPRPKVSPRP | 0.0423
RRIRIRPPRLPRPRPRPTALPRP | 0.0424
RRIRQRPPRLPRPRPRPDITPRP | -0.00487
RRIRERPPRLPRPRPRPWDAPRP | -0.379
RRIRYRPPRLPRPRPRPARQPRP | 0.279
RRIRWRPPRLPRPRPRPFIKPRP | -0.686
RRIRTRPPRLPRPRPRPYSLPRP | -0.186
RRIRPRPPRLPRPRPRPQFCPRP | -0.153
RRIRHRPPRLPRPRPRPIEKPRP | -0.00776
RRIRVRPPRLPRPRPRPRGFPRP | 0.26
RRIRVRPPRLPRPRPRPDEYPRP | 0.0327
RRIRKRPPRLPRPRPRPHMPPRP | -0.175
RRIRYRPPRLPRPRPRPWWCPRP | -0.139

Sequence | shrunken log2 fold change
RRIRERPPRLPRPRPRPLVAPRP | 0.0966
RRIRRRPPRLPRPRPRPDVSPRP | -0.0463
RRIRIRPPRLPRPRPRPRTIPRP | -0.141
RRIRERPPRLPRPRPRPIWPPRP | 0.0406
RRIRIRPPRLPRPRPRPPIQPRP | -0.468
RRIRVRPPRLPRPRPRPAWGPRP | 0.515
RRIRYRPPRLPRPRPRPKQEPRP | -0.017
RRIRQRPPRLPRPRPRPLIEPRP | -0.042
RRIRIRPPRLPRPRPRPGGPPRP | 0.0365
RRIRMRPPRLPRPRPRPGWPPRP | 0.595
RRIRHRPPRLPRPRPRPFNMPRP | -0.0933
RRIRKRPPRLPRPRPRPSREPRP | 0.555
RRIRDRPPRLPRPRPRPWFDPRP | -0.15
RRIRKRPPRLPRPRPRPTLWPRP | 1.19
RRIRERPPRLPRPRPRPIETPRP | -0.00369
RRIRKRPPRLPRPRPRPEKGPRP | -0.00382
RRIRMRPPRLPRPRPRPREGPRP | 0.79
RRIRLRPPRLPRPRPRPNVRPRP | -0.00281
RRIRRRPPRLPRPRPRPVIKPRP | -0.121
RRIRVRPPRLPRPRPRPFWCPRP | -0.121
RRIRVRPPRLPRPRPRPAKHPRP | -0.169
RRIRKRPPRLPRPRPRPQSCPRP | -0.0373
RRIRLRPPRLPRPRPRPCNQPRP | -1.15
RRIRQRPPRLPRPRPRPANWPRP | 0.431
RRIRLRPPRLPRPRPRPFLIPRP | -0.666

Sequence | shrunken log2 fold change
RRIRRRPPRLPRPRPRPATMPRP | 0.876
RRIRARPPRLPRPRPRPYIMPRP | -0.675
RRIRVRPPRLPRPRPRPNTCPRP | -0.101
RRIRKRPPRLPRPRPRPCKNPRP | -0.0355
RRIRVRPPRLPRPRPRPQGAPRP | 0.168
RRIRSRPPRLPRPRPRPHKNPRP | -0.283
RRIRTRPPRLPRPRPRPYQEPRP | -0.182
RRIRSRPPRLPRPRPRPKGWPRP | 1.19
RRIRYRPPRLPRPRPRPDPYPRP | -0.222
RRIRARPPRLPRPRPRPITTPRP | 0.1
RRIRDRPPRLPRPRPRPKPWPRP | 0.46
RRIRFRPPRLPRPRPRPWHCPRP | -0.028
RRIRYRPPRLPRPRPRPFLNPRP | -0.369
RRIRNRPPRLPRPRPRPRERPRP | 0.0512
RRIRKRPPRLPRPRPRPEPLPRP | 0.636
RRIRVRPPRLPRPRPRPTDPPRP | 0.328
RRIRVRPPRLPRPRPRPCFSPRP | -0.356
RRIRSRPPRLPRPRPRPGHRPRP | -0.326
RRIRRRPPRLPRPRPRPTQLPRP | 0.628
RRIRQRPPRLPRPRPRPCSSPRP | -0.0115
RRIRDRPPRLPRPRPRPWFFPRP | 0.673
RRIRCRPPRLPRPRPRPGSLPRP | 0.0481
RRIRSRPPRLPRPRPRPTRWPRP | 0.721
RRIRIRPPRLPRPRPRPYYEPRP | -1.06
RRIRGRPPRLPRPRPRPHDDPRP | 0.0376

Sequence | shrunken log2 fold change
RRIRKRPPRLPRPRPRPLCKPRP | 0.0465
RRIRFRPPRLPRPRPRPAVEPRP | 0.509
RRIRWRPPRLPRPRPRPKFYPRP | -0.24
RRIRARPPRLPRPRPRPERIPRP | 0.155
RRIRHRPPRLPRPRPRPFFWPRP | 0.093
RRIRNRPPRLPRPRPRPNNKPRP | -0.63
RRIRYRPPRLPRPRPRPDRPPRP | -0.215
RRIRARPPRLPRPRPRPMGFPRP | -0.154
RRIRIRPPRLPRPRPRPMYCPRP | -0.183
RRIRERPPRLPRPRPRPDFCPRP | -0.196
RRIRERPPRLPRPRPRPGFGPRP | 0.0959
RRIRWRPPRLPRPRPRPLMEPRP | 0.835
RRIRGRPPRLPRPRPRPASYPRP | -0.14
RRIRARPPRLPRPRPRPVREPRP | 1.01
RRIRARPPRLPRPRPRPNKHPRP | -0.171
RRIRWRPPRLPRPRPRPRFPPRP | 0.304
RRIRFRPPRLPRPRPRPTPQPRP | 0.366
RRIRDRPPRLPRPRPRPRMYPRP | -0.154
RRIRERPPRLPRPRPRPHIAPRP | -0.099
RRIRKRPPRLPRPRPRPCLMPRP | -0.0503
RRIRCRPPRLPRPRPRPVRGPRP | 0.59
RRIRARPPRLPRPRPRPMQCPRP | 0.0593
RRIRFRPPRLPRPRPRPPILPRP | -0.254
RRIRPRPPRLPRPRPRPPTLPRP | 0.129
RRIRMRPPRLPRPRPRPKDPPRP | 0.438
